What was measured:
[1] = target: Gβ1 and YFP-Gγ2 expressed from the Gβ1-2A-YFP-Gγ2 unit; test: FRET or BRET; FLIM of the mTurquoise donor (phase and modulation lifetimes) in living HeLa cells, room temperature; all three subunits from the single plasmid Gα-IRES-Gβ-2A-Gγ
[2] = target: Gβ1 and YFP-Gγ2 expressed from the Gβ1-2A-YFP-Gγ2 unit; test: FRET or BRET; FLIM of the mTurquoise donor (phase and modulation lifetimes) in living HeLa cells, room temperature; all three subunits from the single plasmid Gβ-2A-Gγ-IRES-Gα

**Q.** “Gαq-mTurquoiseΔ6 (from UniProt P50148 1-359) (natural protein)” was tested. Which FRET efficiency from the modulation lifetime (E τM) [1] did it give?
**A.** 7%

**Q.** And the FRET efficiency from the phase lifetime (E τϕ) [1]?
**A.** 14%

**Q.** And the FRET efficiency from the modulation lifetime (E τM) [2]?
**A.** 19%

**Q.** What about the FRET efficiency from the phase lifetime (E τϕ) [2] of the same substance?
**A.** 27%

— paper PMC3219669
